The values that follow come from PMC2120044 (The Journal of Cell Biology, 1994).

For orientation: stoichiometry N means a count of units in the complex or per binding partner.

This series deals with the molecule itself. As to the kind of experiment: SEC.

B1: cofactor A purified from bovine testis (natural protein, UniProt P48427 1-108, looked up)
chain: MADPRVRQIKIKTGVVKRLVKEKMMYEKEAKQQEEKIEKMKAEDGENYAIKKQAEILQESRMMIPDCQRRLEAAHTDLLQLLESEKDLEEAEEYKEARLVLDSVKLEA
For B1, the “stoichiometry N” value was determined as 2.
